The results in this text go back to patent CN110790839A (JIANGSU HENGRUI MEDICINE CO; SHANGHAI HENGRUI …, dated 2020).

Positions count from the first letter of the chain named.

To fix the notation:
B1: Ab05 (antibody, human IgG4 S228P, kappa, F234A L235A, V domains shown)
VH: EVQLVESGGGLVQPGGSLRLSCAASGFTFSSYMMSWVRQAPGKGLEWVATISGGGANTYFADSVKGRFTISRDNAKNSLYLQMNSLRAEDTAVYYCARTQIGFTNWGQGTTVTVSS
VL: DIQMTQSPSSLSASVGDRVTITCLASQTIGTWLTWYQQKPGKAPKLLIYTATSLADGVPSRFSGSGSGTDFTLTISSLQPEDFATYYCQQAYSIPWTFGGGTKVEIKR
notes: also called 抗PD-1抗体Ab05
B2: Ab01 (antibody, human IgG4 S228P, kappa, F234A L235A, V domains shown)
VH: B1 VH
VL: B1 VL with R18I, A91V
notes: also called 抗PD-1抗体Ab01
B3: H005-1 (antibody, human IgG4 S228P, kappa, F234A L235A, V domains shown)
VH: B1 VH with F60Y, A61P, T99Q, Q100L, I101Y, G102Y, T104D, N105Y
VL: B1 VL with A91V
notes: Parent antibody from WO2015085847; also called 亲本抗体H005-1; H005-1抗体

T1 sequence (Q15116 25-167 limits assumed): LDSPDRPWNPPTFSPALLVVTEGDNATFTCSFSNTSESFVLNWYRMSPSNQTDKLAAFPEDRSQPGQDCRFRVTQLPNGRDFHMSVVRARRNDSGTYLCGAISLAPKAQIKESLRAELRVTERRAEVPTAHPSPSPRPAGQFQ

The test addresses T1, 人PD-1抗原(Cat.#10377H08H，Sino Biological) (human, UniProt Q15116 25-167).
T1 construct: Bought reagent, used as the analyte in Biacore; also called human PD-1; PD-1-His
Description: SPR, Biacore T200; IgG captured on Protein A chip, human PD-1 as analyte, 1:1 Langmuir fit.
With B1, the affinity, expressed as Kd, was 2.8 nM. In other words, the single-digit nanomolar range.
To B2 belongs 2.56 nM; to B3, 14.6 nM.
